Source: the supplement of paper PMC10126150
± gives the standard deviation of the averaged measurements.

Each sequence was assayed on ATP (assay: switch fluorescence ratio, 500 uM ATP over buffer (Cy3 cluster intensity, sum of 5 cycles each) (fold (ratio)); higher = stronger signal-on switching upon ATP binding; sequences stand for … in TCGTCGGCAGCGTCAGATGTGTATAAGAGACAGTTTTTTTTTTTTTTTTTTTTTTTTT…TC). Details: aptamer strand: ATP DNA aptamer (quencher-CACCTGGGGGAGTATTGCGGAGGAAGG + anchor), 100 nM annealed; ATP concentration: 500 uM.
How it was run: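 Clusters carrying Cy3-labelled switching strands on a modified Illumina MiSeq flow-cell were annealed to 100 nM quencher-labelled ATP aptamer and imaged in selection buffer. They were imaged again after 15 min with 500 uM ATP at 22 °C, over five buffer/ATP cycles with NaOH stripping and re-annealing in between. For each cluster, the fluorescence ratio is the summed Cy3 intensity of the target cycles divided by that of the buffer cycles, averaged per switch-domain sequence. Clusters outside 100-1000 RFU were left out.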
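Further: ATP exposure 15 min at 22 °C before imaging.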

Sequence	switch fluorescence ratio
AGCGGATGCA	0.985 ± 0.02
AGCGGCATCT	0.983 ± 0.0093
AGCGGGGGGA	1.01 ± 0.025
AGCGGGGTTT	0.987 ± 0.011
AGCGGGTGCC	1.02 ± 0.039
AGCGGGTTGG	1.029 ± 0.0082
AGCGGTCCGG	1 ± 0.058
AGCGTACTCG	1.11 ± 0.047
AGCGTAGGGG	0.94 ± 0.033
AGCGTATGGG	0.983 ± 0.035
AGCGTATTGG	0.998 ± 0.035
AGCGTCGCAG	0.9715 ± 0.0087
AGCGTGACTG	0.987 ± 0.019
AGCGTGAGGG	1.02 ± 0.018
AGCGTGGTGG	0.958 ± 0.033
AGCGTGTAGG	1 ± 0.15
AGCGTGTTTA	1.04 ± 0.036
AGCGTTCAGC	0.9849 ± 0.0026
AGCTAGTTAC	1.38 ± 0.014
AGCTATCCCG	0.991 ± 0.046
AGCTATGTGG	0.9812 ± 0.0064
AGCTCGCCAC	1.05 ± 0.046
AGCTCGGGGG	1 ± 0.034
AGCTGACATT	0.999 ± 0.034
AGCTGATTC	1.031 ± 0.0099
AGCTGGGGGT	1.02 ± 0.06

Sequence	switch fluorescence ratio
AGCTGGGGTG	1.03 ± 0.06
AGCTGTGTGG	1.01 ± 0.012
AGCTGTTTAG	1 ± 0.014
AGCTTAAGAC	1.36 ± 0.041
AGCTTGGGCA	1.02 ± 0.0095
AGCTTGTCAA	0.9774 ± 0.0067
AGCTTTGCTA	0.9582 ± 0.0072
AGCTTTGGTA	1.016 ± 0.0026
AGGAAACTCG	1.03 ± 0.052
AGGAAAGTTT	0.955 ± 0.028
AGGAAATGGG	1 ± 0.036
AGGAACATAG	1.15 ± 0.2
AGGAAGCAG	1.003 ± 0.0027
AGGAAGGG	1.0069 ± 0.00083
AGGAAGGGGC	0.96 ± 0.018
AGGAATAAAA	0.961 ± 0.1
AGGAATATCA	0.998 ± 0.041
AGGACAGTCG	0.929 ± 0.045
AGGACCGGGG	1.024 ± 0.0095
AGGACCGGGT	1.03 ± 0.021
AGGACCGTTA	1 ± 0.031
AGGACCGTTT	0.991 ± 0.016
AGGACGACGG	0.964 ± 0.021
AGGACGTAGC	1.09 ± 0.018
AGGACTAAGG	0.98 ± 0.026
AGGACTCCGT	0.98 ± 0.095

Sequence	switch fluorescence ratio
AGGACTGGCA	0.991 ± 0.038
AGGACTGGTG	1.01 ± 0.044
AGGACTTAGG	1.06 ± 0.056
AGGACTTTAA	1.0405 ± 0.0001
AGGAGACATA	1 ± 0.021
AGGAGAGGAG	1.02 ± 0.038
AGGAGCGCGT	1.02 ± 0.051
AGGAGCGGGG	1 ± 0.1
AGGAGCGGTG	0.985 ± 0.047
AGGAGCTCGG	0.994 ± 0.013
AGGAGGAAAG	0.987 ± 0.028
AGGAGGAGTT	1.01 ± 0.053
AGGAGGCTAG	1.02 ± 0.045
AGGAGGGGA	1.03 ± 0.02
AGGAGGGGCG	0.983 ± 0.0099
AGGAGGTCGG	0.991 ± 0.01
AGGAGGTTGT	0.976 ± 0.017
AGGAGTGTTC	1.01 ± 0.084
AGGATACTGG	0.975 ± 0.031
AGGATCGGAT	1.04 ± 0.003
AGGATCGGTC	1.02 ± 0.021
AGGATCTCGA	0.996 ± 0.033
AGGATGGGAG	0.999 ± 0.023
AGGATGGGGA	0.99 ± 0.023
